{"source": "patent US6613211B1", "about": "“Capillary electrokinesis based cellular assays” (Aclara BioSciences, Inc., priority 1999, dated 2003)", "key": {"fMLP receptor [1]": {"target": "T1, fMLP receptor (Homo sapiens, UniProt P21462)", "T1 sequence (P21462 1-350)": "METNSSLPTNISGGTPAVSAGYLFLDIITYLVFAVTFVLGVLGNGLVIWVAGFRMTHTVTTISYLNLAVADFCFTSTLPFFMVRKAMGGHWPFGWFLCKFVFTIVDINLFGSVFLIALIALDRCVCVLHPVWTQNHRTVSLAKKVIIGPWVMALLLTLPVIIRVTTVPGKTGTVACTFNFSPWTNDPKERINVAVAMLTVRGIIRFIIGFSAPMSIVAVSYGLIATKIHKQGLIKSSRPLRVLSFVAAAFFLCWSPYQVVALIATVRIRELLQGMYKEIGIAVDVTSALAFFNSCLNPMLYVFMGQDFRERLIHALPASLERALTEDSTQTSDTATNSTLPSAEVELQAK", "test": "Cy-5-fMLPK fluorescence with cells read with Hitachi fluorimeter", "type": "binding", "conditions": "solution 3: 125 μl Cy-5-fMLPK, 125 μl cells, 1 μl 1 mM fMLPK", "experimental": "(§1) In the next study, pumping means was employed to move cells through a capillary. The cells were cultured cells having a high level of the fMLP receptor on the surface. The buffer solution was 140 mM NaCl, 1 mM KH2PO4, 5 mM Na2HPO4, 1.5 mM CaCl2, 0.3 mM MgSO4, 1 mM MgCl2, 0.2% BSA. The cell concentration in the reservoir was 10^6/ml and the receptor concentration was 413 pM. […] The labeled ligand was 4 nM, while the ligand concentration was varied from 2.5 nM to 250 nM. The device was comprised of a reservoir having a volume of 500 μl into which was introduced a capillary having an I.D. of 100 μm. In place of an electroosmotic pump, a syringe pump operating at 500 μl/min applied to the other end of the capillary was employed. The reading was taken at about 100 mm from the capillary inlet. The results are shown in FIGS. 4 and 5, where TR stands for tracer, RC refers to receptor and TRC refers to both Tracer and Receptor.\nIn the next study four solutions were prepared using the Cy-5 conjugate of fMLPK. The compositions are as follows: (1) 125 μl buffer and 125 μl Cy-5-fMLPK; (2) 125 μl Cy5-fMLPK and 125 μl cells; (3) 125 μl Cy-5-fMLPK, 125 μl cells and 1 μl 1 mM fMLPK; and 125 μl buffer and 125 μl cells. An Hitachi fluorimeter was used to read scence which covers 220 μl. For buffer, the readings were 34,33."}, "fMLP receptor [2]": {"target": "T1, fMLP receptor", "test": "Capillary cytometric competition of labeled fMLPK binding to cells with a high level of fMLP receptor (syringe pump)", "experimental": "In the next study, pumping means was employed to move cells through a capillary. […] The buffer solution was 140 mM NaCl, 1 mM KH2PO4, 5 mM Na2HPO4, 1.5 mM CaCl2, 0.3 mM MgSO4, 1 mM MgCl2, 0.2% BSA. The cell concentration in the reservoir was 10^6/ml and the receptor concentration was 413 pM. […] […] The device was comprised of a reservoir having a volume of 500 μl into which was introduced a capillary having an I.D. of 100 μm. In place of an electroosmotic pump, a syringe pump operating at 500 μl/min applied to the other end of the capillary was employed. The reading was taken at about 100 mm from the capillary inlet."}, "fMLP receptor [3]": {"target": "T1, fMLP receptor", "test": "Calibration study, Cy5-fMLPK fluorescence with cells read with P/ACE", "type": "binding", "conditions": "solution 3: 25 μl cells, 25 μl 12 nM Cy5-fMLPK, 0.25 μl 1 mM fMLPK", "experimental": "as §1\nIn and initial study for calibration, four solutions were prepared: (1) 25 μl buffer and 25 μl Cy5-fMLPK; (2) 25 μl cells and 25 μl 12 nM Cy5-fMLPK; (3) 25 μl cells and 25 μl 12 nM Cy5-fMLPK and 0.25 μl 1 mM fMLPK; and (4) 25 μl cells and 25 μl buffer. The flurescence was read with the aid of a P/ACE, which covers a volume of 50 μl."}}, "note": "Where “and” joins values, the source holds several entries; their conditions need not be identical. Equal values may be shown once. Where no end group is shown, it is not given here. The star is where a group is joined. For = O=C*"}
{"substance": "N-formyl-Met-Leu-Phe-Lys (For-MLFK) [fMLPK]", "values": [{"measurement": "fluorescence, column A", "setting": "fMLP receptor [1]", "result": 844}, {"measurement": "fluorescence, column C", "setting": "fMLP receptor [1]", "result": 826}, {"measurement": "fluorescence, column D", "setting": "fMLP receptor [1]", "result": 812}, {"measurement": "total peak height", "setting": "fMLP receptor [2]; fMLPK 2.5 nM", "result": 19}, {"measurement": "total peak height", "setting": "fMLP receptor [2]; fMLPK 250 nM", "result": "< 1"}, {"measurement": "total peak height", "setting": "fMLP receptor [2]; fMLPK 2.5 μM", "result": 0}, {"measurement": "fluorescence, column A", "setting": "fMLP receptor [3]", "result": "1,97 and 1.99"}, {"measurement": "fluorescence, column B", "setting": "fMLP receptor [3]", "result": "1.98 and 1.97"}, {"measurement": "fluorescence, column C", "setting": "fMLP receptor [3]", "result": "2.06, 2.06"}, {"measurement": "fluorescence, column D", "setting": "fMLP receptor [3]", "result": "1.95 and 1.99"}]}
